Measurements taken from US20200190168A1 (US Dept. of Health and Human Services, published 2020).

B1: CR2 (complement receptor 2, CD21) on IgG+ B cells of human PBMCs (receptor)
chain: ISCGSPPPILNGRISYYSTPIAVGTVIRYSCSGTFRLIGEKSLLCITKDKVDGTWDKPAPKCEYFNKYSSCPEPIVPGGYKIRGSTPYRHGDSVTFACKTNFSMNGNKSVWCQANNMWGPTRLPTCVSVFPLECPALPMIHNGHHTSENVGSIAPGLSVTYSCESGYLLVGEKIINCLSSGKWSAVPPTCEEARCKSLGRFPNGKVKEPPILRVGVTANFFCDEGYRLQGPPSSRCVIAGQGVAWTKMPVCEEIFCPSPPPILNGRHIGNSLANVSYGSIVTYTCDPDPEEGVNFILIGESTLRCTVDSQKTGTWSGPAPRCELSTSAVQCPHPQILRGRMVSGQKDRYTYNDTVIFACMFGFTLKGSKQIRCNAQGTWEPSAPVCEKECQAPPNILNGQKEDRHMVRFDPGTSIKYSCNPGYVLVGEESIQCTSEGVWTPPVPQCKVAACEATGRQLLTKPQHQFVRPDVNSSCGEGYKLSGSVYQECQGTIPWFMEIRLCKEITCPPPPVIYNGAHTGSSLEDFPYGTTVTYTCNPGPERGVEFSLIGESTIRCTSNDQERGTWSGPAPLCKLSLLAVQCSHVHIANGYKISGKEAPYFYNDTVTFKCYSGFTLKGSSQIRCKADNTWDPEIPVCEKETCQHVRQSLQELPAGSRVELVNTSCQDGYQLTGHAYQMCQDAENGIWFKKIPLCKVIHCHPPPVIVNGKHTGMMAENFLYGNEVSYECDQGFYLLGEKKLQCRSDSKGHGSWSGPSPQCLRSPPVTRCPNPEVKHGYKLNKTHSAYSHNDIVYVDCNPGFIMNGSRVIRCHTDNTWVPGVPTCIKKAFIGCPPPPKTPNGNHTGGNIARFSPGMSILYSCDQGYLLVGEALLLCTHEGTWSQPAPHCKEVNCSSPADMDGIQKGLEPRKMYQYGAVVTLECEDGYMLEGSPQSQCQSDHQWNPPLAVCRSRSLAPVLCGIAAGLILLTFLIVITLYVISKHRARNYYTDTSQKEAFHLEAREVYSVDPYNPAS
notes: whole, on cells; also called gp350 receptor
B2: CR2-Ig (chimeric molecule of CR2 SCR1-2 domain and IgG Fc region) (Fc fusion)
chain: ISCGSPPPILNGRISYYSTPIAVGTVIRYSCSGTFRLIGEKSLLCITKDKVDGTWDKPAPKCEYFNKYSSCPEPIVPGGYKIRGSTPYRHGDSVTFACKTNFSMNGNKSVWCQANNMWGPTRLPTCVSVFPLE
notes: domain: SCR1-2; not shown: IgG Fc region

How the values were obtained:
[1] = biological target: T1, gp350 B95-8 (2-425) D296R Avi-His (Epstein Barr Virus (B95-8), UniProt P03200 2-425); assay: flow cytometry staining of IgG+ B cells in human PBMCs, co-stained with anti-CD21
T1 construct: also called D296R gp350 probe; D296R mutant

[2] = biological target: T2, gp350 B95-8 (2-425) D296R/I160R Avi-His (Epstein Barr Virus (B95-8), UniProt P03200 2-425); assay: as above
T2 construct: also called gp350 D296R/I160R probe

[3] = biological target: gp350 B95-8 (2-425) D296R/P158R/I160R Avi-His (Epstein Barr Virus (B95-8), UniProt P03200 2-425); assay: biolayer interferometry (Octet), CR2-Ig on protein A biosensors
[4] = biological target: gp350 B95-8 (2-425) D296R/P158R Avi-His (Epstein Barr Virus (B95-8), UniProt P03200 2-425); assay: as above
[5] = biological target: T3, gp350 B95-8 (2-425) D296R/P158N*/I160T Avi-His (Epstein Barr Virus (B95-8), UniProt P03200 2-425); assay: as above
T3 construct: also called D296R/P158N/I160T (glycan addition at 158)

[6] = biological target: T2, gp350 B95-8 (2-425) D296R/I160R Avi-His; assay: as above

Binder | binding result [1] | binding result [2] | binding result [3] | binding result [4] | binding result [5] | binding result [6]
B1 | binds | no binding | – | – | – | –
B2 | – | – | no binding | no binding | no binding | no binding
